Laboratory results from patent US6329339A, “Pharmaceutical antiviral composition comprising glycyrrhizic acid and at least one protein endowed with antiviral activity” (priority 1997, dated 2001).

Tests used:
HSV1 [1] = experiment: Inhibition of HSV1 viral plaques on VERO cells; type: cell-based, Herpes Simplex Virus type 1; details: for Inhibition (%) of viral plaques with various lysozymes: percentage of the control ± standard deviation; for MDI50 (dose inhibiting 50% of the viral plaques on VERO cells): HSV1
HSV1 [2] = details: Current Microbiology 1984; cited from earlier work
VERO cells = experiment: Toxicity expressed as a minimum toxic dose on 50% of the cells; type: cell-based, African green monkey
Experimental: It was carried out as Example 1 except that different amounts of bovine and human lactoferrin were added to the single layers of VERO cells infected with HSV1.
*Toxicity expressed as a minimum toxic dose on 50% of the cells.

B1: turkey lysozyme: turkey lysozyme (protein, UniProt P00703 19-147, looked up)
Lysozyme C: KVYGRCELAAAMKRLGLDNYRGYSLGNWVCAAKFESNFNTHATNRNTDGSTDYGILQINSRWWCNDGRTPGSKNLCNIPCSALLSSDITASVNCAKKIASGGNGMNAWVAWRNRCKGTDVHAWIRGCRL
Inhibition (%) of viral plaques with various lysozymes (HSV1 [1]; 0.5 mg/ml): 10 ± 3%
Inhibition (%) of viral plaques with various lysozymes (HSV1 [1]; 1 mg/ml): 45 ± 5%
Inhibition (%) of viral plaques with various lysozymes (HSV1 [1]; 2 mg/ml): 55 ± 6%
Inhibition (%) of viral plaques with various lysozymes (HSV1 [1]; 4 mg/ml): 68 ± 5%
Inhibition (%) of viral plaques with various lysozymes (HSV1 [1]; 6 mg/ml): 80 ± 4%
Inhibition (%) of viral plaques with various lysozymes (HSV1 [1]; 8 mg/ml): 89 ± 5%
antiviral / anti-herpetic (HSV1) activity of lysozymes (HSV1 [2]): anti-herpetic (HSV1) activity

B2: Human lactoferrin: human lactoferrin; lactoferrin supplied by SIGMA (protein, UniProt P02788 20-710, looked up)
Lactotransferrin: GRRRSVQWCAVSQPEATKCFQWQRNMRKVRGPPVSCIKRDSPIQCIQAIAENRADAVTLDGGFIYEAGLAPYKLRPVAAEVYGTERQPRTHYYAVAVVKKGGSFQLNELQGLKSCHTGLRRTAGWNVPIGTLRPFLNWTGPPEPIEAAVARFFSASCVPGADKGQFPNLCRLCAGTGENKCAFSSQEPYFSYSGAFKCLRDGAGDVAFIRESTVFEDLSDEAERDEYELLCPDNTRKPVDKFKDCHLARVPSHAVVARSVNGKEDAIWNLLRQAQEKFGKDKSPKFQLFGSPSGQKDLLFKDSAIGFSRVPPRIDSGLYLGSGYFTAIQNLRKSEEEVAARRARVVWCAVGEQELRKCNQWSGLSEGSVTCSSASTTEDCIALVLKGEADAMSLDGGYVYTAGKCGLVPVLAENYKSQQSSDPDPNCVDRPVEGYLAVAVVRRSDTSLTWNSVKGKKSCHTAVDRTAGWNIPMGLLFNQTGSCKFDEYFSQSCAPGSDPRSNLCALCIGDEQGENKCVPNSNERYYGYTGAFRCLAENAGDVAFVKDVTVLQNTDGNNNEAWAKDLKLADFALLCLDGKRKPVTEARSCHLAMAPNHAVVSRMDKVERLKQVLLHQQAKFGRNGSDCPDKFCLFQSETKNLLFNDNTECLARLHGKTTYEKYLGPQYVAGITNLKKCSTSPLLEACEFLRK
MDI50 (dose inhibiting 50% of the viral plaques on VERO cells) (HSV1 [1]): 0.25 mg/mL
MTD50 (minimum toxic dose on 50% of the cells) (VERO cells): 3 mg/mL

B3: human lysozyme: human lysozyme (protein, UniProt P61626 19-148, looked up)
Lysozyme C: KVFERCELARTLKRLGMDGYRGISLANWMCLAKWESGYNTRATNYNAGDRSTDYGIFQINSRYWCNDGKTPGAVNACHLSCSALLQDNIADAVACAKRVVRDPQGIRAWVAWRNRCQNRDVRQYVQGCGV
Inhibition (%) of viral plaques with various lysozymes (HSV1 [1]; 0.5 mg/ml): 18 ± 3%
Inhibition (%) of viral plaques with various lysozymes (HSV1 [1]; 1 mg/ml): 45 ± 3%
Inhibition (%) of viral plaques with various lysozymes (HSV1 [1]; 2 mg/ml): 59 ± 4%
Inhibition (%) of viral plaques with various lysozymes (HSV1 [1]; 4 mg/ml): 70 ± 4%
Inhibition (%) of viral plaques with various lysozymes (HSV1 [1]; 6 mg/ml): 79 ± 6%
Inhibition (%) of viral plaques with various lysozymes (HSV1 [1]; 8 mg/ml): 90 ± 5%
antiviral / anti-herpetic (HSV1) activity of lysozymes (HSV1 [2]): anti-herpetic (HSV1) activity

B4: Bovine lactoferrin: bovine lactoferrin; lactoferrin supplied by SIGMA (protein, UniProt P24627 20-708, looked up)
Lactotransferrin: APRKNVRWCTISQPEWFKCRRWQWRMKKLGAPSITCVRRAFALECIRAIAEKKADAVTLDGGMVFEAGRDPYKLRPVAAEIYGTKESPQTHYYAVAVVKKGSNFQLDQLQGRKSCHTGLGRSAGWIIPMGILRPYLSWTESLEPLQGAVAKFFSASCVPCIDRQAYPNLCQLCKGEGENQCACSSREPYFGYSGAFKCLQDGAGDVAFVKETTVFENLPEKADRDQYELLCLNNSRAPVDAFKECHLAQVPSHAVVARSVDGKEDLIWKLLSKAQEKFGKNKSRSFQLFGSPPGQRDLLFKDSALGFLRIPSKVDSALYLGSRYLTTLKNLRETAEEVKARYTRVVWCAVGPEEQKKCQQWSQQSGQNVTCATASTTDDCIVLVLKGEADALNLDGGYIYTAGKCGLVPVLAENRKSSKHSSLDCVLRPTEGYLAVAVVKKANEGLTWNSLKDKKSCHTAVDRTAGWNIPMGLIVNQTGSCAFDEFFSQSCAPGADPKSRLCALCAGDDQGLDKCVPNSKEKYYGYTGAFRCLAEDVGDVAFVKNDTVWENTNGESTADWAKNLNREDFRLLCLDGTRKPVTEAQSCHLAVAPNHAVVSRSDRAAHVKQVLLHQQALFGKNGKNCPDKFCLFKSETKNLLFNDNTECLAKLGGRPTYEEYLGTEYVTAIANLKKCSTSPLLEACAFLTR
MDI50 (dose inhibiting 50% of the viral plaques on VERO cells) (HSV1 [1]): 0.25 mg/mL
MTD50 (minimum toxic dose on 50% of the cells) (VERO cells): 2 mg/mL
